For one test, the system named is T7 promoter. Briefly: Cross recognition of promoters, gel transcription assay. It is filed as biochemical, bacteriophage T7. The note with it: T7 DNA fragment with T7 Φ1.1 B promoter. The method, then:
FIGS. 3A-3C depict characterization of the Syn5 promoter. A) Determination of the 3′-end of Syn5 promoter. 3′-dATP, 3′-dGTP, 3′-dUTP replaced ATP, GTP and UTP, respectively, as chain terminator to sequence the 5′-end of Syn5 RNAP transcript on a template same as template 1 in FIG. 2B. Once the 5′-terminus of the transcript was determined, the sequence preceding it should be the promoter and the 3′-end of the promoter can thus be defined. A 25% TBE-urea gel was used for this assay. B) Cross recognition between Syn5 and T7 transcription systems. Syn5 RNAP synthesizes runoff products on a fragment of T7 DNA provided the T7 promoter is replaced by a Syn5 promoter (lane a). Syn5 RNAP fails to produce transcripts if the first nucleotide downstream of the promoter is changed from G to T (lane b). […]
For the gel assay results shown in FIGS. 1, 2, 3, and 13, reaction mixtures (20 μl) contained 40 mM Tris-HCl (pH 7.9), 6 mM MgCl2, 2 mM spermidine, 10 mM DTT, 200 µM[…]P, GTP and UTP, 10 µM [[…]-^32P]CTP, 1.5 U/µl RNaseOUT™ recombinant ribonuclease inhibitor (Invitrogen), 100 nM Syn5 or T7 RNAP, and DNA templates as described in the figure legends (either 2 nM phage genomic DNA, 4 nM purified PCR products, or 1 µM synthetic dsDNA fragments). […] After electrophoresis, gels were dried and analyzed using a Fuji BAS 1000 Bioimaging Analyzer.

Test [1] relates to linearized pET24-Syn5RNAP. Briefly: Long run-off RNA synthesis and incorporation of modified nucleotides (yield by A260). It is filed as biochemical. As to the method: FIGS. 12A-12B depict synthesis of long run-off product and the incorporation of modified nucleotides by Syn5 and T7 RNA polymerase. A) On the linearized plasmid template as shown in the schematic, the production of RNA by either RNA polymerase (10 nM) was analyzed on agarose gel as lane 2. […] Lane 3 and 4 show the same RNA synthesis when CTP was replaced by 5mCTP and UTP by Ps-UTP, respectively. B) Incorporation of UTP or Ps-UTP into small RNA by 22, 67, and 200 nM Syn5 and T7 RNA polymerase as analyzed by denaturing TBE polyacrylamide gel. Full-length run-off product and the N+1 product are shown.
The plasmid pET24 harboring the Syn5 RNAP gene (pET24-S5RNAP) that contains a single Syn5 promoter in the RNAP gene and a single T7 promoter preceding the gene was used for filter binding assay as shown in FIG. 8. pET24-S5RNAP was also linearized by EcoRI treatment and recovered by gel extraction to serve as template for FIG. 12A.
For the results shown in FIG. 12A, reaction mixtures (10 μl) contained 40 mM Tris-HCl pH 8.0, 6 mM MgCl2, 2 mM spermidine, 10 mM DTT, 600 µM[…]P, GTP, CTP (or 5Me-CTP), and UTP (or Pseudo-UTP), 1.5 U/µl RNaseOUT™ recombinant ribonuclease inhibitor, 0.04 U/µl yeast inorganic pyrophosphatase, 10 nM linearized (NotI treated) pET24-Syn5RNAP, 0 or 160 mM KCl, and 10 nM Syn5 or T7 RNAP. Syn5 reaction was carried out at RT and T7 at 37° C. RNA products were then purified with RNA Clean & Concentrator™-5 kit into a final solution of 10 µl and 5 µl each was mixed with 5 µl denaturing RNA loading dye. Samples were then heated at 65° C. for 5 min and loaded onto 1.6% TAE agarose gel. RNA products were visualized by ethidium bromide staining. For FIG. 12B, reaction mixtures (10 μl) containing 40 mM Tris-HCl pH 8.0, 6 mM MgCl2, 2 mM spermidine, 10 mM DTT, 200 µM[…]P, GTP and UTP (or Pseudo-UTP), 10 µM [[…]-^32P]CTP, 1.5 U/µl RNaseOUT™ recombinant ribonuclease inhibitor, 0.5 μM DNA templates S5P-tDNAR or T7P-tDNAR, and various amount of Syn5 or T7 RNAP were incubated at RT (for Syn5 RNAP) or 37° C. (for T7 RNAP) for 30 min before adding of one unit of DNase I to each reaction mixture and an additional incubation of 15 min at 37° C. Reactions were then terminated by the addition of 4 µl of loading dye containing 95% formamide and 40 mM EDTA. Samples were then heated at 90° C. for 1 min and 4 µl sample each was loaded onto 6% TBE-Urea denaturing polyacrylamide gel. After electrophoresis, gels were dried and analyzed using a Fuji BAS 1000 Bioimaging Analyzer.

Setting [2] is: CTP and UTP present, 1500 nt run-off transcript, optimal temperature of each RNAP.

This is an account of results in patent publication US11066655B2, “RNA polymerase, methods of purification and methods of use” (President and Fellows of Harvard College, priority 2013, dated 2021).

For the molecule “T7 RNAP: RNA polymerase encoded by bacteriophage T7, from New England Biolabs [reference compound]”, in the test on T7 promoter, the “transcription from a T7 promoter” value was “initiates transcription and produces a runoff transcript”. The “yield of RNA” value in test [1] (160 mM KCl) is “completely inhibited”. Moreover, the “yield of RNA, based on A260” value in test [1] (setting [2]) is 0.64 µg; in test [1] (CTP replaced by 5mCTP) it was 0.75 µg; in test [1] (UTP replaced by Ps-UTP), 0.59 µg.

B1: Syn5 RNAP: single subunit DNA-dependent RNA polymerase from marine cyanophage Syn5, amino acid sequence SEQ ID NO:23 (protein)
chain: MSFDLIARQLQRETEAAELARKRLQDARREANERSYASSNIESRKAIATFLDPIAQRIGERLFTLRRGTGAVDAAEVYKHLKNADHHHLALITMKTALDVLGKDPEPQIQQLTTAIGRNIQLELRLTYYAEENPELYKQASRFFHAGTGTRQKATVIKLKFNREGIEWDQWSRVTCHKVGQWLMLAMADVTGWIERATDRTSGGRKTKTRICYSREFLQHRDTILAAAEQLAFCQWPMLCPPIEWSNDHNGGYLSEQIRRVNPLIRKTGPLGTRKQGDIPLAMLNNLQGQAYKVNPEVLDIANHCYESNVTVGKFIRHAPLPVPPSPGEDCTEDQLTAYKRARREAEDFNAQISQKNWRTTEVMYVARKYADEASFWMPASFDYRGRVYFLNTALNPQGTDFDKALLYFAEEGPVNEWWLSFHVATTYGLDKETMVNRVQWARDNHELIDRIASDPVRHTEWHDADEPWCFLAACLEYKACVIDGTKQTSGLPIGIDATCSGLQHLAAMTRCGRTAALVNVTPTDKPADAYKTVAQASLKHLPKEQHEWITRKVTKRPVMCTPYGVTMSSARGYIRDQLVKDGHKEDLRSPGVLNGIVKAIFNEAIPEVIPGPVQVMAWLKRSAGQIIDRGDSTITWTTPSGFEVVQDLKKSKTYEVKTRIMGGARIKLQVGDGFTDEPDRDHHKSALAPNVVHSNDASLLHLTFAFWDKPFTVIHDCVLGRSCDMDQMGSDIRLHFAEMYKADVMQDWADQVGVELPVDLIKNTLDIDSVNQSLYFFS
modifications: Amino acid sequence of a cyanophage Syn5 RNAP
On to B1, for which, in the test with T7 promoter, the “transcription from a T7 promoter” value is “does not recognize a T7 promoter”. In addition, the “yield of RNA” value in test [1] (160 mM KCl) was found to be 0.31 µg. The “yield relative to that in the absence of salt” value in test [1] (160 mM KCl) is “about 50%”. Further, the “yield of RNA, based on A260” value in test [1] (setting [2]) came out at 0.69 µg; in test [1] (CTP replaced by 5mCTP), 0.76 µg; in test [1] (UTP replaced by Ps-UTP), 0.63 µg.
